Reference: IntAct's records for PubMed 21258410

B1: Mothers against decapentaplegic homolog 7 (Homo sapiens), O15105 (parent)
chain: MFRTKRSALVRRLWRSRAPGGEDEEEGAGGGGGGGELRGEGATDSRAHGAGGGGPGRAGCCLGKAVRGAKGHHHPHPPAAGAGAAGGAEADLKALTHSVLKKLKERQLELLLQAVESRGGTRTACLLLPGRLDCRLGPGAPAGAQPAQPPSSYSLPLLLCKVFRWPDLRHSSEVKRLCCCESYGKINPELVCCNPHHLSRLCELESPPPPYSRYPMDFLKPTADCPDAVPSSAETGGTNYLAPGGLSDSQLLLEPGDRSHWCVVAYWEEKTRVGRLYCVQEPSLDIFYDLPQGNGFCLGQLNSDNKSQLVQKVRSKIGCGIQLTREVDGVWVYNRSSYPIFIKSATLDNPDSRTLLVHKVFPGFSIKAFDYEKAYSLQRPNDHEFMQQPWTGFTVQISFVKGWGQCYTRQFISSCPCWLEVIFNSR

Variants of: B1
Conditions: with wwp2_human WWP2, O00308
Sequence of wwp2_human WWP2, O00308 (O00308 whole entry): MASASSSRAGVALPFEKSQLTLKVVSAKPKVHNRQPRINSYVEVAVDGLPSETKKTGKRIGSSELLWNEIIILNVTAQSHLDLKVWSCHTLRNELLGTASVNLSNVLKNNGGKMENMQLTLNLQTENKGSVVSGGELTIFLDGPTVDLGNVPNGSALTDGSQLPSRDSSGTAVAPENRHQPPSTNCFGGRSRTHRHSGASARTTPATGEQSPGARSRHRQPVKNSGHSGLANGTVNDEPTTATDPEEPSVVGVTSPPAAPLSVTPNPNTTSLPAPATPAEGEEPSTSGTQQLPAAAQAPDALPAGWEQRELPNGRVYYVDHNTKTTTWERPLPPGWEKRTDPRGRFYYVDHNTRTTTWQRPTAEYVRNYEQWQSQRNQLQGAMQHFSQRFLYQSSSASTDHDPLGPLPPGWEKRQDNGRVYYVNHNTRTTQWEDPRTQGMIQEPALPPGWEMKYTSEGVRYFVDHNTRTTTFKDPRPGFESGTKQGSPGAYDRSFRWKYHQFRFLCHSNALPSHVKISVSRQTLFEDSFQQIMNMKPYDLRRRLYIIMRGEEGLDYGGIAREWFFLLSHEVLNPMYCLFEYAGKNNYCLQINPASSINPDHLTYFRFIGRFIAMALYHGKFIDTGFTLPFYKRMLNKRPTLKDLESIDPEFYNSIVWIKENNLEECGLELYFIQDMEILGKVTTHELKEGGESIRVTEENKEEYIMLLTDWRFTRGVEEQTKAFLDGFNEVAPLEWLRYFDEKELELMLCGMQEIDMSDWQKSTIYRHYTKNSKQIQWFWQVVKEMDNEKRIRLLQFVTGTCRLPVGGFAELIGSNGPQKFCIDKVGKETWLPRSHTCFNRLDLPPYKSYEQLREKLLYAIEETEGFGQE

| Variant | effect of a mutation on the interaction |
| --- | --- |
| MFRTKRSALVRRLWRSRAPGGEDEEEGAGGGGGGGELRGEGATDSRAHGAGGGGPGRAGCCLGKAVRGAKGHHHPHPPAAGAGAAGGAEADLKALTHSVLKKLKERQLELLLQAVESRGGTRTACLLLPGRLDCRLGPGAPAGAQPAQPPSSYSLPLLLCKVFRWPDLRHSSEVKRLCCCESYGKINPELVCCNPHHLSRLCELESPPPGSSRYPMDFLKPTADCPDAVPSSAETGGTNYLAPGGLSDSQLLLEPGDRSHWCVVAYWEEKTRVGRLYCVQEPSLDIFYDLPQGNGFCLGQLNSDNKSQLVQKVRSKIGCGIQLTREVDGVWVYNRSSYPIFIKSATLDNPDSRTLLVHKVFPGFSIKAFDYEKAYSLQRPNDHEFMQQPWTGFTVQISFVKGWGQCYTRQFISSCPCWLEVIFNSR [P210G;Y211S] | disrupting interaction |
